± gives the standard deviation of the averaged measurements.
Experiment: total protein half-life in vivo (active degradation + dilution); higher = more stable protein
[1] = E. coli NCM3722 delta-clpP delta-lon delta-hslV, growth: N-lim chemostat, doubling time 6 h
[2] = E. coli NCM3722 delta-clpP, growth: N-lim chemostat, doubling time 6 h
[3] = E. coli NCM3722 delta-hslV, growth: N-lim chemostat, doubling time 6 h
[4] = E. coli NCM3722 delta-lon, growth: N-lim chemostat, doubling time 6 h
[5] = E. coli NCM3722 delta-smpB, growth: N-lim chemostat, doubling time 6 h
[6] = wild type E. coli NCM3722, growth: C-lim chemostat, doubling time 3 h
[7] = wild type E. coli NCM3722, growth: C-lim chemostat, doubling time 6 h
[8] = wild type E. coli NCM3722, growth: C-lim chemostat, doubling time 12 h
[9] = wild type E. coli NCM3722, growth: N-lim chemostat, doubling time 6 h
[10] = wild type E. coli NCM3722, growth: N-lim chemostat, doubling time 12 h
[11] = wild type E. coli NCM3722, growth: P-lim chemostat, doubling time 6 h
[12] = wild type E. coli NCM3722, growth: P-lim chemostat, doubling time 12 h

| Sequence | total protein half-life in vivo [1] [h] | total protein half-life in vivo [2] [h] | total protein half-life in vivo [3] [h] | total protein half-life in vivo [4] [h] | total protein half-life in vivo [5] [h] | total protein half-life in vivo [6] [h] | total protein half-life in vivo [7] [h] | total protein half-life in vivo [8] [h] | total protein half-life in vivo [9] [h] | total protein half-life in vivo [10] [h] | total protein half-life in vivo [11] [h] | total protein half-life in vivo [12] [h] |
| --- | --- | --- | --- | --- | --- | --- | --- | --- | --- | --- | --- | --- |
| MDYFTLFGLPARYQLDTQALSLRFQDLQRQYHPDKFASGSQAEQLAAVQQSATINQAWQTLRHPLMRAEYLLSLHGFDLASEQHTVRDTAFLMEQLELREELDEIEQAKDEARLESFIKRVKKMFDTRHQLMVEQLDNETWDAAADTVRKLRFLDKLRSSAEQLEEKLLDF [P0A6L9] | 4.89 ± 0.7 | 3.99 ± 0.75 | 3.26 ± 0.27 | 4.06 ± 0.18 | 3.04 ± 0.18 | 2.9 ± 0.23 | 4.74 ± 0.099 | 9.84 ± 1 | 3.07 ± 0.24 | 4.57 ± 0.19 | 5.45 ± 0.78 | 9.39 ± 0.82 |
| MYFLNDLNFSRRDAGFKARKDALDIASDYENISVVNIPLWGGVVQRIISSVKLSTFLCGLENKDVLIFNFPMAKPFWHILSFFHRLLKFRIVPLIHDIDELRGGGGSDSVRLATCDMVISHNPQMTKYLSKYMSQDKIKDIKIFDYLVSSDVEHRDVTDKQRGVIYAGNLSRHKCSFIYTEGCDFTLFGVNYENKDNPKYLGSFDAQSPEKINLPGMQFGLIWDGDSVETCSGAFGDYLKFNNPHKTSLYLSMELPVFIWDKAALADFIVDNRIGYAVGSIKEMQEIVDSMTIETYKQISENTKIISQKIRTGSYFRDVLEEVIDDLKTR | 6.47 | 7.29 | – | 5.02 ± 0.14 | 4.15 ± 0.31 | – | – | – | – | – | – | – |
| MKKFSGIIPPVSSTFHRDGTLDKKAMREVADFLINKGVDGLFYLGTGGEFSQMNTAQRMALAEEAVTIVDGRVPVLIGVGSPSTDEAVKLAQHAQAYGADGIVAINPYYWKVAPRNLDDYYQQIARSVTLPVILYNFPDLTGQDLTPETVTRLALQNENIVGIKDTIDSVGHLRTMINTVKSVRPSFSVFCGYDDHLLNTMLLGGDGAITASANFAPELSVGIYRAWREGDLATAATLNKKLLQLPAIYALETPFVSLIKYSMQCVGLPVETYCLPPILEASEEAKDKVHVLLTAQGILPV | 4.88 ± 0.66 | 2.73 ± 0.14 | – | – | 3.17 ± 1.4 | 2.83 ± 0.1 | 4.76 ± 0.24 | 9.39 ± 0.15 | 3.68 | – | – | 11.11 ± 0.052 |
| MQPFGVLDRYIGKTIFTTIMMTLFMLVSLSGIIKFVDQLKKAGQGSYDALGAGMYTLLSVPKDVQIFFPMAALLGALLGLGMLAQRSELVVMQASGFTRMQVALSVMKTAIPLVLLTMAIGEWVAPQGEQMARNYRAQAMYGGSLLSTQQGLWAKDGNNFVYIERVKGDEELGGISIYAFNENRRLQSVRYAATAKFDPEHKVWRLSQVDESDLTNPKQITGSQTVSGTWKTNLTPDKLGVVALDPDALSISGLHNYVKYLKSSGQDAGRYQLNMWSKIFQPLSVAVMMLMALSFIFGPLRSVPMGVRVVTGISFGFVFYVLDQIFGPLTLVYGIPPIIGALLPSASFFLISLWLLMRKS [P0ADC6] | – | 6.53 ± 0.4 | 6.81 ± 0.8 | 6.01 ± 0.47 | 6.08 ± 0.48 | – | 6.69 ± 0.65 | 12.3 ± 0.43 | 6.06 ± 0.099 | 12.9 ± 0.5 | 6.22 ± 0.49 | 13.5 ± 0.88 |
| MATKLQDGNTPCLAATPSEPRPTVLVFDSGVGGLSVYDEIRHLLPDLHYIYAFDNVAFPYGEKSEAFIVERVVAIVTAVQERYPLALAVVACNTASTVSLPALREKFDFPVVGVVPAIKPAARLTANGIVGLLATRGTVKRSYTHELIARFANECQIEMLGSAEMVELAEAKLHGEDVSLDALKRILRPWLRMKEPPDTVVLGCTHFPLLQEELLQVLPEGTRLVDSGAAIARRTAWLLEHEAPDAKSADANIAFCMAMTPGAEQLLPVLQRYGFETLEKLAVLG | 5.25 ± 0.28 | 4.4 ± 0.08 | 4.32 ± 0.48 | 4.74 ± 0.2 | 4.44 ± 0.14 | 3.22 ± 0.32 | 5.49 ± 0.17 | – | 4.54 ± 0.11 | 7.85 ± 0.034 | 6.21 ± 0.3 | 12.2 ± 0.2 |
| MTQENEIKRPIQDLEHEPIKPLDNSEKGSKVSQALETVTTTAEKVQRQPVIAHLIRATERFNDRLGNQFGAAITYFSFLSMIPILMVSFAAGGFVLASHPMLLQDIFDKILQNISDPTLAATLKNTINTAVQQRTTVGLVGLAVALYSGINWMGNLREAIRAQSRDVWERSPQDQEKFWVKYLRDFISLIGLLIALIVTLSITSVAGSAQQMIISALHLNSIEWLKPTWRLIGLAISIFANYLLFFWIFWRLPRHRPRKKALIRGTFLAAIGFEVIKIVMTYTLPSLMKSPSGAAFGSVLGLMAFFYFFARLTLFCAAWIATAEYKDDPRMPGKTQP | 4.96 ± 0.058 | 4.8 ± 0.18 | 3.99 ± 0.46 | 3.56 ± 0.56 | 4.74 ± 0.46 | 2.41 ± 0.45 | 4.07 ± 0.12 | 7.18 ± 1.4 | 4.21 ± 0.15 | 6.7 ± 0.46 | 4.02 ± 0.11 | 6.92 ± 0.24 |
| MNGLLRIRQRYQGLAQSDKKLADYLLLQPDTARHLSSQQLANEAGVSQSSVVKFAQKLGYKGFPALKLALSEALASQPESPSVPIHNQIRGDDPLRLVGEKLIKENTAAMYATLNVNSEEKLHECVTMLRSARRIILTGIGASGLVAQNFAWKLMKIGFNAAAVRDMHALLATVQASSPDDLLLAISYTGVRRELNLAADEMLRVGGKVLAITGFTPNALQQRASHCLYTIAEEQATNSASISACHAQGMLTDLLFIALIQQDLELAPERIRHSEALVKKLV | 5.79 ± 0.53 | 4.3186 ± 0.00083 | 2.83 ± 0.031 | 3.72 ± 0.33 | 3.5 ± 0.69 | 2.44 ± 0.087 | 4.31 ± 0.2 | 5.65 ± 1.1 | 2.8 ± 0.11 | 4.19 ± 0.29 | 3.73 ± 0.18 | 7.58 ± 1.8 |

Source: the supplement of paper PMC11246515
